Measured values: patent US20130022611A1, “METHODS AND COMPOSITIONS FOR MODULATING HEPSIN ACTIVATION OF UROKINASE-TYPE PLASMINOGEN ACTIVATOR” (Genentech, Inc., priority 2006, published 2013)

How the values were obtained:
pro-uPA = target: T1, pro-uPA (Homo sapiens, UniProt P00749); assay: First-order kinetics of pro-uPA activation by serine proteases; type: biochemical; settings: for Added pro-uPA converted during the experiment / First-order rate constant k ± SD: 30 nM pro-uPA, 3 nM enzyme; for First-order rate constant k ± SD: room temperature, 5 experiments; for Efficiency of pro-uPA activation compared to matriptase: kcat/Km ratio
T1 construct: time-dependent cleavage of the single-chain form into the two-chain form; purchased Cortex Biochem (San Leandro, Calif.)
Protocol: The Km and kcat values for pro-uPA activation could not be accurately determined because the pro-uPA stock solution from the supplier (0.8 mg/ml) was not sufficiently high. Therefore, we chose to determine the first-order rate constant k as a measure of pro-uPA conversion efficiency. It was ensured that the pro-uPA concentration used (30 nM) was in the range of first-order kinetics for the enzymes tested, i.e. hepsin, plasmin and matriptase. The rate of uPA formation by these enzymes was linear up to 200 nM of pro-uPA. Pro-uPA (30 nM) was added to the enzymes (3 nM) in Hepes buffer to start the reaction at room temperature. At various time points, 50-μl aliquots were removed and added to 150 μl of 667 nM HAI-2 (final concentration in 250 μl was 400 nM) in Hepes buffer to stop further pro-uPA cleavage. […] Our results on HAI-2 inhibition of plasmin and HGFA (data not shown) were consistent with the published data (26,27). After addition of 50 μl of 2.5 mM S2444, the increase in absorbance at 405 nm was measured on a kinetic microplate reader. The concentration of uPA in each aliquot was calculated from a standard curve of enzymatically converted pro-uPA. The data were expressed as the decrease in the concentration of pro-uPA (log [pro-uPA]) as function of time. The first-order rate constant k was calculated from the slope using the equation
log [S]=−(k/2.3)t+log [S]0
where [S] is the concentration of pro-uPA and [S]0 is the initial pro-uPA concentration. The catalytic efficiency, kcat/Km, was then calculated using the known enzyme concentration [E] and the relationship k=(kcat/Km)[E]. The values are the average of 5 experiments±SD.

pro-tPA = target: T2, pro-tPA (Homo sapiens, UniProt P00750); assay: Pro-tPA cleavage analysed by SDS-PAGE; type: biochemical; settings: 1.5 μM pro-tPA, 15 nM enzyme, 10 and 60 min
T2 construct: purchased Biodesign International (Saco, Me.)
Protocol: Pro-uPA at a concentration of 1.5 μM was incubated with 15 nM hepsin or 15 nM plasmin in Hepes buffer at room temperature. […] The samples were analyzed by SDS-PAGE using a 4-20% gradient gel (Invitrogen; Carlsbad, Calif.). Protein was visualized after staining with SimplyBlue Safe Stain (Invitrogen). Experiments with pro-tPA (1.5 μM) were carried out identically, except that the buffer used was 50 mM sodium phosphate pH 7.5, 200 mM arginine, 0.01% Tween-20.

[1] = tested on: LnCaP-34 cells (hepsin-overexpressing); assay: Pro-uPA activation by LnCaP-34 cells (two-stage enzymatic assay); type: cell-based, human
Protocol: (§1) Confluent LnCaP-34 and LnCaP-17 cells were washed with HBSA-Glucose buffer (20 mM Hepes pH 7.5, 150 mM NaCl, 5 mM CaCl2, 0.05 mg/ml BSA, 5 mM glucose) and 0.8 ml of 100 nM pro-uPA in pre-warmed HBSA-Glucose buffer was added to the cell layers. The inhibitors KD1 or HI-10331 were added to give final concentrations of 1 μM and 10 μM, respectively. The culture plates were kept at 37° C. and 50 μl samples were withdrawn at different time points, supplemented with 0.2 ml of […] S2444 in Hepes buffer and the increase in absorbance at 405 nm measured on a kinetic microplate reader. Cell numbers were determined at the end of the experiments. The concentration of formed uPA in each sample was calculated from a standard curve of enzymatically converted pro-uPA and normalized to 10^6 cells. After subtracting the background levels of uPA formed in the absence of cell layer, the linear rates of uPA formation/10^6 cells were determined.

[2] = tested on: LnCaP-34 cells (hepsin-overexpressing); assay: Pro-uPA conversion by LnCaP-34 cells, immunoblotting; type: cell-based, human; settings: LnCaP-34, 30 nM pro-uPA, 1 h, 3 h, 5 h, 37° C.
Protocol: For immunoblotting experiments, confluent LnCaP-34 cell layers were washed as above and incubated with 30 nM pro-uPA at 37° C. After 1 hr, 3 hr and 5 hr, aliquots were taken and immediately added to SDS sample buffer. The proteins were separated by SDS-PAGE and transferred onto nitrocellulose filters using the Bio-Rad Semi Dry Transfer system. Pro-uPA and uPA were visualized by using a rabbit polyclonal anti-uPA antibody (Cell Sciences; Canton, Mass.) followed by HRP-conjugated anti-rabbit antibody (Jackson ImmunoResearch Laboratory; West Grove, Pa.) and ECL (GE Healthcare; Piscataway, N.J.) enhancement.

uPA [3] = target: T3, uPA (Homo sapiens, UniProt P00749); assay: Chromogenic activity towards S2444 of samples withdrawn from LnCaP cell layers; type: biochemical; settings: data not shown
T3 construct: two-chain form consisting of the 20 kDa A-chain and the 30 kDa B-chain (protease domain); purchased American Diagnostica (Greenwich, Conn.)
Protocol: as §1

uPA [4] = target: T3, uPA; settings: reference 21; cited from earlier work
LnCaP-17 cells = assay: Pro-uPA activation by LnCaP-17 cells (two-stage enzymatic assay); type: cell-based, human
Protocol: as §1

uPA [5] = target: T3, uPA; assay: Enzymatic assay of uPA with chromogenic substrate S2444; type: biochemical; settings: 10 nM uPA, S2444 at Km; read-out: Ki* (apparent equilibrium dissociation constant) ± SD
Protocol: The reversible active site inhibitor HI-10331 (Genentech, Inc.) (having the molecule structure depicted in FIG. 10, and disclosed in U.S. Pat. No. 6,472,393) or HAI-2 were incubated with 0.5 nM hepsin, 0.5 nM matriptase and 10 nM uPA for 30 min in Hepes buffer (20 mM Hepes, pH 7.5, 150 mM NaCl, 5 mM CaCl2, 0.01% Triton X-100) at room temperature. The chromogenic substrates S2366 (for hepsin), S2765 (for matriptase) and S2444 (for uPA) were added at a concentration corresponding to their respective Km values, which were determined in separate experiments. After substrate addition, the linear rates of the increase in absorbance at 405 nm was measured on a kinetic microplate reader (Molecular Devices, Sunnyvale, Calif.).
The Ki values were calculated according to the relationship Ki=IC50/(1+[S]/Km) (23) using the experimentally determined IC50 and Km values for each enzyme-substrate pair. For HAI-2, the apparent Ki values (Ki^*) were determined by fitting the data to the equation for tight binding inhibition (24,25).

T2 sequence (P00750 36-562): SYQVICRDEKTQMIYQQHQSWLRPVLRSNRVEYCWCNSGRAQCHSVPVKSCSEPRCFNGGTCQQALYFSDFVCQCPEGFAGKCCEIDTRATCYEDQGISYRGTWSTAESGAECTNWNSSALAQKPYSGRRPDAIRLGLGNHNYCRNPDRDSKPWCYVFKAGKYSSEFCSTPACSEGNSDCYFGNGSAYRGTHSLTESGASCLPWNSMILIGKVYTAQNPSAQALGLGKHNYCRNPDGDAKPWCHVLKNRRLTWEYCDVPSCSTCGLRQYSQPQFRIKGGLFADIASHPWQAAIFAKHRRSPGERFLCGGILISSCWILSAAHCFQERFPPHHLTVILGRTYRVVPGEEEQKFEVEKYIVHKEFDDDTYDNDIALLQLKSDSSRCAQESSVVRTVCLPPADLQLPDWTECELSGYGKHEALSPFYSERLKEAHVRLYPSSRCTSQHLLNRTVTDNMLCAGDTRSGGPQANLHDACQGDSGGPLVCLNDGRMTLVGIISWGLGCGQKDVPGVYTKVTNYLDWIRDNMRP

Hepsin: soluble His-tagged extracellular domain of human hepsin (Arg45-Leu417), baculovirus expressed
Added pro-uPA converted during the experiment (pro-uPA): about 70%
First-order rate constant k ± SD (pro-uPA): 87.1 ± 11.3 10^−3 min^−1
Efficiency of pro-uPA activation compared to matriptase (pro-uPA): about 6 fold
Cleavage of pro-tPA (pro-tPA): does not cleave

KD1: Kunitz domain-1 inhibitor derived from HAI-1B, produced in E. coli (TEDYCLASNKVGRCRGSFPRWYYDPTEQICKSFVYGGCLGNKNNYLREEECILACRGV)
Inhibition of pro-uPA cleavage ([1]; LnCaP-34, 1 μM KD1): almost completely inhibited
Rate of pro-uPA activation per 10^6 cells ± SD ([1]; LnCaP-34, 1 μM KD1, 100 nM pro-uPA, 37° C.): 0.2 ± 0.1 nM uPA hr^−1
Inhibition of pro-uPA cleavage (immunoblot) [2]: strongly inhibited
Inhibition of chromogenic activity of the withdrawn samples (uPA [3]): not inhibited
Inhibition of uPA (uPA [4]): does not inhibit
Inhibition of pro-uPA cleavage (LnCaP-17 cells; LnCaP-17, 1 μM KD1): almost completely inhibited
Rate of pro-uPA activation per 10^6 cells ± SD (LnCaP-17 cells; LnCaP-17, 1 μM KD1, 100 nM pro-uPA, 37° C.): 0.2 ± 0.2 nM uPA hr^−1

B1: Matriptase: matriptase protease domain expressed in E. coli (protein)
chain: VVGGTDADEGEWPWQVSLHALGQGHICGASLISPNWLVSAAHCYIDDRGFRYSDPTQWTAFLGLHDQSQRSAPGVQERRLKRIISHPFFNDFTFDYDIALLELEKPAEYSSMVRPICLPDASHVFPAGKAIWVTGWGHTQYGGTGALILQKGEIRVINQTTCENLLPQQITPRMMCVGFLSGGVDSCQGDSGGPLSSVEADGRIFQAGVVSWGDGCAQRNKPGVYTRLPLFRDWIKENTGV
First-order rate constant k ± SD (pro-uPA): 14.2 ± 4.9 10^−3 min^−1

B2: HAI-2: recombinantly expressed soluble hepatocyte growth factor activator inhibitor-2, a bi-Kunitz inhibitor (protein)
chain: ADRERSIHDFCLVSKVVGRCRASMPRWWYNVTDGSCQLFVYGGCDGNSNNYLTKEECLKKCATVTENATGDLATSRNAADSSVPSAPRRQDSEDHSSDMFNYEEYCTANAVTGPCRASFPRWYFDVERNSCNNFIYGGCRGNKNSYRSEEACMLRCFRQQENPPLPLGSK
Ki (uPA [5]): > 1000 nM

B3: Plasmin: Lys-plasmin from Heamatologic Technologies Inc., known pro-uPA activator (protein)
chain: KVYLSECKTGNGKNYRGTMSKTKNGITCQKWSSTSPHRPRFSPATHPSEGLEENYCRNPDNDPQGPWCYTTDPEKRYDYCDILECEEECMHCSGENYDGKISKTMSGLECQAWDSQSPHAHGYIPSKFPNKNLKKNYCRNPDRELRPWCFTTDPNKRWELCDIPRCTTPPPSSGPTYQCLKGTGENYRGNVAVTVSGHTCQHWSAQTPHTHNRTPENFPCKNLDENYCRNPDGKRAPWCHTTNSQVRWEYCKIPSCDSSPVSTEQLAPTAPPELTPVVQDCYHGDGQSYRGTSSTTTTGKKCQSWSSMTPHRHQKTPENYPNAGLTMNYCRNPDADKGPWCFTTDPSVRWEYCNLKKCSGTEASVVAPPPVVLLPDVETPSEEDCMFGNGKGYRGKRATTVTGTPCQDWAAQEPHRHSIFTPETNPRAGLEKNYCRNPDGDVGGPWCYTTNPRKLYDYCDVPQCAAPSFDCGKPQVEPKKCPGRVVGGCVAHPHSWPWQVSLRTRFGMHFCGGTLISPEWVLTAAHCLEKSPRPSSYKVILGAHQEVNLEPHVQEIEVSRLFLEPTRKDIALLKLSSPAVITDKVIPACLPSPNYVVADRTECFITGWGETQGTFGAGLLKEAQLPVIENKVCNRYEFLNGRVQSTELCAGHLAGGTDSCQGDSGGPLVCFEKDKYILQGVTSWGLGCARPNKPGVYVRVSRFVTWIEGVMRNN
Added pro-uPA converted during the experiment (pro-uPA): about 70%
First-order rate constant k ± SD (pro-uPA): 81.5 ± 14.2 10^−3 min^−1
Efficiency of pro-uPA activation compared to matriptase (pro-uPA): about 6 fold
